According to patent US20140255415A1 (Novartis, published 2014):

Assays:
[1] = biological target: human LINGO-1 expressed on CHO-K1 cells (CHO-K1-hLINGO-1) (human) (UniProt Q96FE5); experiment: apparent KD, FACS saturation binding on CHO-K1-hLINGO-1 cells, IgG4 format
[2] = biological target: T1, human LINGO-2 expressed on CHO-K1 cells (CHO-K1-hLINGO-2) (human, UniProt Q7L985 26-606); experiment: apparent KD, FACS saturation binding on CHO-K1-hLINGO-2 cells, IgG4 format
T1 construct: range 26-606; not shown: 2 amino acid residue linker
T1 sequence (looked up): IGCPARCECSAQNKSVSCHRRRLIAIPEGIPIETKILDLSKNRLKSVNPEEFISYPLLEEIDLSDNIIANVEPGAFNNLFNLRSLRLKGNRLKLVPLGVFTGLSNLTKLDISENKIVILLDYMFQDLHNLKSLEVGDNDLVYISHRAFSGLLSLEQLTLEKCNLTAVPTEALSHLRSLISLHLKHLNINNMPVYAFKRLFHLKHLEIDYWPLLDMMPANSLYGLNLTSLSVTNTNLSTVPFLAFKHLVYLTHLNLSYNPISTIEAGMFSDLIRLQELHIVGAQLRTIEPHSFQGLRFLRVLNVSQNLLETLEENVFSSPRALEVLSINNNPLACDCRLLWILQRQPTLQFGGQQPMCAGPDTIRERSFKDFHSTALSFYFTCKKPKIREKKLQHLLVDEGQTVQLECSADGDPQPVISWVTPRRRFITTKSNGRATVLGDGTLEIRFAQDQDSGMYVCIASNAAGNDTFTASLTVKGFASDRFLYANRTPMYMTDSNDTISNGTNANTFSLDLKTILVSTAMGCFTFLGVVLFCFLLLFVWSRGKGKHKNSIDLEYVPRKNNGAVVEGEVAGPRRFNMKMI

[3] = biological target: T2, rat LINGO-1 expressed on CHO-K1 cells (CHO-K1-rLINGO-1) (rat, UniProt A0A8I5ZPI2 34-614); experiment: apparent KD, FACS saturation binding on CHO-K1-rLINGO-1 cells, IgG4 format
T2 construct: range 34-614; not shown: 2 amino acid residue linker
T2 sequence: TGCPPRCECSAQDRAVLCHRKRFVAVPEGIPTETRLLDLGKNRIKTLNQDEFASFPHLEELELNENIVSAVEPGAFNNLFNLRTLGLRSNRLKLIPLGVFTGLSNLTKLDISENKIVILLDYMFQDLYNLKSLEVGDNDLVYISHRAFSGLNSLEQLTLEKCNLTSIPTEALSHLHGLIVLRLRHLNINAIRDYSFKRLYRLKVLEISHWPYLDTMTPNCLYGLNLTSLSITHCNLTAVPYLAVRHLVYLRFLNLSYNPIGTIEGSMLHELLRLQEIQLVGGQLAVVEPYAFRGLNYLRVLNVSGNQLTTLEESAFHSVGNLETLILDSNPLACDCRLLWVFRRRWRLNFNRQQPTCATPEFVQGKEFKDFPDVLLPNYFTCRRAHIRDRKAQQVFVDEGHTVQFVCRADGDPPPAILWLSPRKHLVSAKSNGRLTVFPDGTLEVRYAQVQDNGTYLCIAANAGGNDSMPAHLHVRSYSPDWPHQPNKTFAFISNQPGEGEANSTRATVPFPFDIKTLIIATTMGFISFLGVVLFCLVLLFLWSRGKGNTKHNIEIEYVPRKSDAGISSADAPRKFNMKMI
Procedure: (§1) Cell based affinity of anti-LINGO-1 specific antibodies is determined by FACS saturation binding experiments. The determination of the apparent KD values is carried out identical to the procedure described above using anti-LINGO-1 Fab antibodies.
(§2) In detail, CHO-K1-hLINGO-1, CHO-K1-cmLINGO-1 or CHO-K1-rLINGO-1 are detached from culture flasks by versene, washed with FACS buffer and resuspended in FACS buffer. Purified anti-LINGO-1 IgG4s are serially diluted in FACS buffer and spread into round bottom 96-well microtiter plates (NUNC™, Wiesbaden, Germany). For each concentration, duplicate wells are incubated with 1.25×10⁴ cells for 30-60 min on ice in a total volume of 100 μl. […] Using this assay the following apparent KD values can be determined (Table 3).

[4] = biological target: T3, cynomolgus monkey LINGO-1 expressed on CHO-K1 cells (CHO-K1-cmLINGO-1) (cynomolgus monkey, UniProt Q9N008 34-614); experiment: apparent KD, FACS saturation binding on CHO-K1-cmLINGO-1 cells, IgG4 format
T3 construct: range 34-614; also called Cynomolgus LINGO-1; not shown: 2 amino acid residue linker
T3 sequence (looked up): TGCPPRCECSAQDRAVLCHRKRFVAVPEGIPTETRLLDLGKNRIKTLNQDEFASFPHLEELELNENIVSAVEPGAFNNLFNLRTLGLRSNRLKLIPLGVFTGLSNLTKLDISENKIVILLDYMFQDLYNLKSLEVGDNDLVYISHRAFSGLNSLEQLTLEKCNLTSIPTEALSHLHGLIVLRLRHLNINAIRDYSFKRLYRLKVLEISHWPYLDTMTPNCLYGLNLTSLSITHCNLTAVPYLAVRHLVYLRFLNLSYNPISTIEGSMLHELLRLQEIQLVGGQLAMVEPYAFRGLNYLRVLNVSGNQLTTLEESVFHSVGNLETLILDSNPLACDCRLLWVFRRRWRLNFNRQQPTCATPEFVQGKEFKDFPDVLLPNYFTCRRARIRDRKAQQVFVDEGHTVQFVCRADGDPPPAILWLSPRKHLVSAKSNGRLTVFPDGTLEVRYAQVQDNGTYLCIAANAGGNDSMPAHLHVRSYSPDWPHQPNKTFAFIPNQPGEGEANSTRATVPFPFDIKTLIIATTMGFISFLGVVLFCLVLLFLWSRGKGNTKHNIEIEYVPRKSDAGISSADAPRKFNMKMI
Procedure: as §1, §2

[5] = biological target: human LINGO-1 expressed on CHO-K1 cells (CHO-K1-hLINGO-1) (human) (UniProt Q96FE5); experiment: apparent KD, FACS saturation binding on CHO-K1-hLINGO-1 cells, IgG4 pre-incubated in FACS buffer
[6] = biological target: human LINGO-1 expressed on CHO-K1 cells (CHO-K1-hLINGO-1) (human) (UniProt Q96FE5); experiment: apparent KD, FACS saturation binding on CHO-K1-hLINGO-1 cells, IgG4, with 50% human cerebro-spinal fluid
[7] = biological target: human LINGO-1 expressed on CHO-K1 cells (CHO-K1-hLINGO-1) (human) (UniProt Q96FE5); experiment: apparent KD, FACS saturation binding on CHO-K1-hLINGO-1 cells, IgG4 pre-incubated in FACS buffer + 2.6% BSA
[8] = biological target: human LINGO-1 expressed on CHO-K1 cells (CHO-K1-hLINGO-1) (human) (UniProt Q96FE5); experiment: ratio of apparent KDs, FACS saturation binding on CHO-K1-hLINGO-1 cells, IgG4, without against with 50% human CSF
[9] = biological target: human LINGO-1 expressed on CHO-K1 cells (CHO-K1-hLINGO-1) (human) (UniProt Q96FE5); experiment: apparent KD, FACS saturation binding on CHO-K1-hLINGO-1 cells, IgG4 pre-incubated in FACS buffer + 50% human serum
[10] = biological target: human LINGO-1 expressed on CHO-K1 cells (CHO-K1-hLINGO-1) (human) (UniProt Q96FE5); experiment: apparent KD, FACS saturation binding on CHO-K1-hLINGO-1 cells, IgG4, without 50% human cerebro-spinal fluid (control)

B1: anti-LINGO-1 IgG4 antibody 4785 (antibody, V domains shown)
VH: QVQLQQSGPGLVKPSQTLSLTCAISGDSVSDNSAAWSWIRQSPGRGLEWLGLIYLRSKWDNDYAVSVKSRITINPDTSKNQFSLQLNSVTPEDTAVYYCARTGRADEFDVWGQGTLVTVSS
VL: DIVLTQPPSVSGAPGQRVTISCSGSSSNIGNNYVSWYQQLPGTAPKLLISRNSKRPSGVPDRFSGSKSGTSASLAITGLQSEDEADYYCSTYDTFSIVFGGGTKLTVLG
For B1, the Kd [1] was 70 pM, the Kd [2] was 950 pM and the Kd [3] was 70 pM. It also gave a Kd [4] of 180 pM, a Kd [5] of 80 pM and a Kd [6] of 250 pM. It also gave a Kd [7] of 50 pM, an App. KD ratio w/o CSF:w/ CSF [8] of 0.76 and a Kd [9] of 60 pM. The Kd [10] was 190 pM.
